What is called koff is the first-order rate constant of dissociation. Read a high koff as a short-lived complex. As usually defined, the kon is the second-order rate constant of association. A high value points to fast association.

“And” between values parts separate entries of the source, which are not always exact repeats. Equal values may be shown once.

Among the data in US20220249679A1, “BI-SPECIFIC BINDING AGENTS TARGETING SYNDECAN-1 AND FIBROBLAST GROWTH FACTOR RECEPTOR” (Mitsubishi Tanabe Pharma Corporation, priority 2018, published 2022) are Kd, koff and kon values, retold here.

Experiment [1] deals with Human CD138 His (human) (UniProt P18827). The experiment in a line: SPR (BioRad Proteon), CD138 His immobilized, bivalent analyte fit.
Experiment [2] shares this target. Briefly: SPR, summary table.

Sequence of Human CD138 His (human) (P18827 23-254 limits assumed): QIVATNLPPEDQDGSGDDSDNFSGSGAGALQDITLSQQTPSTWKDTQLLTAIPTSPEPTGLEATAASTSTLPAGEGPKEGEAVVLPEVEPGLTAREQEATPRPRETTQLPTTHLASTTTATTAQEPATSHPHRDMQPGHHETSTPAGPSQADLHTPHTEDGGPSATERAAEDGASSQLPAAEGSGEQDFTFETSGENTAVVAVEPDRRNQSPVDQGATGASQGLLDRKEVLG

Regarding mBT062 (antibody), in the experiment with Human CD138 His (human) [1], the Kd was 1.95 nM and 2 nM; the off-rate constant (koff) is 0.000666 s⁻¹; the kon came out at 342000 M⁻¹ s⁻¹. Further, in the experiment with Human CD138 His (human) [2], the Kd amounted to 2 nM.
